Measured values reported in patent publication US20240279325A1 (Chugai, published 2024).
Residue numbers refer to the chain shown, from its start. Blank lines part the entries; values can stand above or below the binder they belong to.

How the values were obtained:
[1] = target: T1, human FcγRIIa type R (allotype R131) extracellular domain with C-terminal His tag (human, UniProt P12318 34-217); assay: SPR (Biacore), antibody captured, FcγR analyte
T1 construct: extracellular domain; also called FcγRIIaR; not shown: His tag at the C terminus
T1 sequence (looked up): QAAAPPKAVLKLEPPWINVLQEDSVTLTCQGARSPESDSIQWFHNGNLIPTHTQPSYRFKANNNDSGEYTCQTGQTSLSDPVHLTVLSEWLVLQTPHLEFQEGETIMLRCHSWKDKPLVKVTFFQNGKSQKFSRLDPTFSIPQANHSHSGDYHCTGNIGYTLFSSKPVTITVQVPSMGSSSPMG

[2] = target: T2, human FcγRIIa type H (allotype H131) extracellular domain with C-terminal His tag (human, UniProt P12318 34-217); assay: SPR (Biacore), antibody captured, FcγR analyte
T2 construct: extracellular domain; also called FcγRIIaH; not shown: His tag at the C terminus
T2 sequence (looked up): T1 sequence (looked up) with R134H

[3] = target: T3, FcγRIIb extracellular domain with C-terminal His tag (human, UniProt P31994 43-217); assay: SPR; KD for FcγRIIaH divided by KD for FcγRIIb
T3 construct: extracellular domain
T3 sequence (looked up): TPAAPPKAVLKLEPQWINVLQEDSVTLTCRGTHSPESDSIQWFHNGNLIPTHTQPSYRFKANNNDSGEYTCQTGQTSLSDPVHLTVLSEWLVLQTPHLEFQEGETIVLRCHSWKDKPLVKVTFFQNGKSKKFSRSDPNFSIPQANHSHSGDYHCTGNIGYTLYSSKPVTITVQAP

[4] = target: T3, FcγRIIb extracellular domain with …; assay: SPR; KD for FcγRIIaR divided by KD for FcγRIIb
[5] = target: T4, FcγRIIa type H (allotype H131) extracellular domain with C-terminal His tag (human, UniProt P12318 34-217); assay: SPR (Biacore), antibody captured, FcγR as analyte
T4 construct: extracellular domain; also called FcγRIIaH; FcγRIIa H type
T4 sequence (looked up): T1 sequence (looked up) with R134H

[6] = target: T5, FcγRIIa type R (allotype R131) extracellular domain with C-terminal His tag (human, UniProt P12318 34-217); assay: SPR; KD of IL6R-B3/IL6R-L divided by KD of the variant
T5 construct: extracellular domain; also called FcγRIIaR; FcγRIIa R type
T5 sequence (looked up): T1 sequence (looked up)

[7] = target: T3, FcγRIIb extracellular domain with …; assay: as above
[8] = target: T6, human FcγRIa extracellular domain with C-terminal His tag (human, UniProt P12314 16-292); assay: SPR (Biacore), antibody captured, FcγR analyte
T6 construct: not shown: His tag at the C terminus

[9] = target: T2, human FcγRIIa type H (allotype H131) …; assay: SPR (Biacore), antibody captured, FcγR analyte; remark: listed apart in the source
[10] = target: T7, human FcγRIIa type H (allotype H131) extracellular domain with C-terminal His tag (human, UniProt P12318 34-217); assay: SPR (Biacore), captured antibody, FcγR analyte
T7 construct: also called FcγRIIaH
T7 sequence: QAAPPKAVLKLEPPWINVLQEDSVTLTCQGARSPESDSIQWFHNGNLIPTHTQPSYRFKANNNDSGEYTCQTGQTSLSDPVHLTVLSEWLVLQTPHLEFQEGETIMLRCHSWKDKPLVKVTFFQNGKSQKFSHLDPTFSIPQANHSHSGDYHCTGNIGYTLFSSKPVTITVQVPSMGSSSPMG

mouse FcγRI = target: T8, mouse FcγRI (mouse, UniProt P26151 25-297); assay: SPR (Biacore), method of Reference Example 2
T8 construct: extracellular domain; also called mFcγRI
T8 sequence (looked up): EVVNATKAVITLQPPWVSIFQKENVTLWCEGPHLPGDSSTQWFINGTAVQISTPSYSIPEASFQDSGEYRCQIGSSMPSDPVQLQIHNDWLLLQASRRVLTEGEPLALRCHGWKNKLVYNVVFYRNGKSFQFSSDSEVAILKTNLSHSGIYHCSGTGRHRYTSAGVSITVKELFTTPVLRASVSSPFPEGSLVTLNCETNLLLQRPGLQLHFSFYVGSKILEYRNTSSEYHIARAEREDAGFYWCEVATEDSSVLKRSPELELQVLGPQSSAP

mouse FcγRIV = target: T9, mouse FcγRIV (mouse, UniProt A0A0B4J1G0 21-203); assay: SPR (Biacore), method of Reference Example 2
T9 construct: also called mFcγRIV; not shown: purification tag of the soluble receptor (probably a His tag)
T9 sequence: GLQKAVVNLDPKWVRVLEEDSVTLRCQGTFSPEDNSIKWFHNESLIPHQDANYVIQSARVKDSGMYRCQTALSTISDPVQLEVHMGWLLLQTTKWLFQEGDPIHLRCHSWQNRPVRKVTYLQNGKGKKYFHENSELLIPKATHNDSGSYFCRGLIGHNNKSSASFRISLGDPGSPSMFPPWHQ

T6 sequence (P12314 16-292): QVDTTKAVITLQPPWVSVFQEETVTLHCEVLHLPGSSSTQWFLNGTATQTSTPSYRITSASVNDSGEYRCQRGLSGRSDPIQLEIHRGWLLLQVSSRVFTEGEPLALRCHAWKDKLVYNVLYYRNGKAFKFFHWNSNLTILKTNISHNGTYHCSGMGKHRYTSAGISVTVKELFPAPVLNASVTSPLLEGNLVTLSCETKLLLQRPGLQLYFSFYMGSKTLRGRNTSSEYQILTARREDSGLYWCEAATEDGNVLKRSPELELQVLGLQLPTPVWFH

B1: IL6R-BP183/IL6R-L (antibody, human IgG1, kappa, name in EU numbering)
heavy: QVQLQESGPGLVKPSETLSLTCAVSGHSISHDHAWSWVRQPPGEGLEWIGFISYSGITNYNPSLQGRVTISRDNSKNTLYLQMNSLRAEDTAVYYCARSLARTTAMDYWGEGTLVTVSSASTKGPSVFPLAPSSKSTSGGTAALGCLVKDYFPEPVTVSWNSGALTSGVHTFPAVLQSSGLYSLSSVVTVPSSSLGTQTYICNVNHKPSNTKVDKKVEPKSCDKTHTCPPCPAPDYLGGDSVFLFPPKPKDTLMISRTPEVTCVVVDVSHEDGEVKFNWYVDGVEVHNAKTKPREEQYNSTYRVVSVLTVLHQDWLNGKEYKCKVSNAALPKPIEKTISKAKGQPREPQVYTLPPSRDELTKNQVSLTCLVKGFYPSDIAVEWESNGQPENNYKTTPPVLDSDGSFFLYSKLTVDKSRWQQGNVFSCSVMHEALHNHYTQESLSLSP
light: not shown
notes: EU numbering; copies: 2 + 2
Kd [1]: 1600 nM

B4: IL6R-BP234/IL6R-L (antibody, human IgG1, kappa, name in EU numbering)
heavy: B1 heavy with G239D, S269Q, H270D, Y298D, A328D
light: not shown
notes: EU numbering; copies: 2 + 2
Kd [2]: 20 µM

B5: IL6R-BP185/IL6R-L (antibody, human IgG1, kappa, name in EU numbering)
heavy: B1 heavy with G239D
light: not shown
notes: EU numbering; copies: 2 + 2
Kd [8]: 53 nM

B8: IL6R-BP193/IL6R-L (antibody, human IgG1, kappa, name in EU numbering)
heavy: B1 heavy with Y236L, H270D, A328K
light: not shown
notes: EU numbering; copies: 2 + 2
Kd [8]: 5.3 nM

B9: IL6R-BP210/IL6R-L (antibody, human IgG1, kappa, name in EU numbering)
heavy: B1 heavy with D235E, Y236L, G239D, H270D, A328K, K332R
light: not shown
notes: EU numbering; copies: 2 + 2
Kd [8]: 55 nM
Kd [9]: 95 µM

B11: IL6R-BP192/IL6R-L (antibody, human IgG1, kappa, name in EU numbering)
heavy: B1 heavy with Y236L, H270D, Y298D, A328K
light: not shown
notes: EU numbering; copies: 2 + 2
Kd [8]: 5.6 nM

B13: IL6R-BP200/IL6R-L (antibody, human IgG1, kappa, name in EU numbering)
heavy: B1 heavy with G239D, A328D, K332R
light: not shown
notes: EU numbering; copies: 2 + 2
Kd [1]: 680 nM
Kd [9]: 42 µM

B14: IL6R-BP184/IL6R-L (antibody, human IgG1, kappa, name in EU numbering)
heavy: B1 heavy with Y236L, A328K
light: not shown
notes: EU numbering; copies: 2 + 2
Kd [1]: 1300 nM

B17: IL6R-BP206/IL6R-L (antibody, human IgG1, kappa, name in EU numbering)
heavy: B1 heavy with Y236L, A328K, K332R
light: not shown
notes: EU numbering; copies: 2 + 2
Kd [1]: 5100 nM

B18: IL6R-BP190/IL6R-L (antibody, human IgG1, kappa, name in EU numbering)
heavy: B1 heavy with D235E, Y236L, G239D, H270D, A328K
light: not shown
notes: EU numbering; copies: 2 + 2
Kd [8]: 53 nM

B19: IL6R-BP199/IL6R-L (antibody, human IgG1, kappa, name in EU numbering)
heavy: B1 heavy with Y236L, G273P, A328D, K332R
light: not shown
notes: EU numbering; copies: 2 + 2
Kd [8]: 5.4 nM

B20: VH3/L(WT)-mIgG1-mF44 (antibody)
heavy: QVQLQESGPGLVKPSETLSLTCAVSGHSISHDHAWSWVRQPPGEGLEWIGFISYSGITNYNPSLQGRVTISRDNSKNTLYLQMNSLRAEDTAVYYCARSLARTTAMDYWGEGTLVTVSSAKTTPPSVYPLAPGSAAQTNSMVTLGCLVKGYFPEPVTVTWNSGSLSSGVHTFPAVLQSDLYTLSSSVTVPSSTWPSETVTCNVAHPASSTKVDKKIVPRDCGCKPCICTVPEVSSVFIFPPKPKDVLTITLTPKVTCVVVDISKDDPEVQFSWFVDDVEVHTAQTQPREEQFNSTFRSVSELPIMHQDWLNGKEFKCRVNSADFPAPIEKTISKTKGRPKAPQVYTIPPPKEQMAKDKVSLTCMITDFFPEDITVEWQWNGQPAENYKNTQPIMDTDGSYFVYSKLNVQKSNWEAGNTFTCSVLHEGLHNHHTEKSLSHSPGK
light: not shown
notes: copies: 2 + 2
binding result (mouse FcγRI): no binding
binding result (mouse FcγRIV): no binding

Further lines, results first:

Kd [2]: 9 µM
B2: IL6R-BP241/IL6R-L (antibody, human IgG1, kappa, name in EU numbering)
heavy: B1 heavy with Y236L, G239D, H270D, A328D, K332R
light: not shown
notes: EU numbering; copies: 2 + 2

KD(IIaH)/KD(IIb) [3]: 865
KD(IIaR)/KD(IIb) [4]: 40.1
Kd [5]: 1.5 µM
KD(IIaR) OF PARENT POLYPEPTIDE/KD(IIaR) OF ALTERED POLYPEPTIDE [6]: 14.8
KD(IIb) OF PARENT POLYPEPTIDE/KD(IIb) OF ALTERED POLYPEPTIDE [7]: 1680
B3: IL6R-BP488/IL6R-L (antibody, human IgG1, kappa, name in EU numbering)
heavy: B1 heavy with Y236L, G239D, V266I, S269A, H270E, Y298D, A328K, K332R
light: not shown
notes: copies: 2 + 2

KD(IIaH)/KD(IIb) [3]: 658
KD(IIaR)/KD(IIb) [4]: 18.5
Kd [5]: 15 µM
KD(IIaR) OF PARENT POLYPEPTIDE/KD(IIaR) OF ALTERED POLYPEPTIDE [6]: 2.4
KD(IIb) OF PARENT POLYPEPTIDE/KD(IIb) OF ALTERED POLYPEPTIDE [7]: 127
B6: IL6R-BP504/IL6R-L (antibody, human IgG1, kappa, name in EU numbering)
heavy: B1 heavy with Y236L, G239D, V266I, S269A, H270E, E274P, A328K, K332A
light: not shown
notes: copies: 2 + 2

Kd [2]: 7 µM
B7: IL6R-BP238/IL6R-L (antibody, human IgG1, kappa, name in EU numbering)
heavy: B1 heavy with G239D, H270D, Y298D, K332R
light: not shown
notes: EU numbering; copies: 2 + 2

Kd [10]: 2000 nM
B10: IL6R-BP456/IL6R-L (antibody, human IgG1, kappa, name in EU numbering)
heavy: B1 heavy with Y236L, G239D, S269A, H270E, A328K, K332R, P398M
light: not shown
notes: copies: 2 + 2

Kd [10]: 2000 nM
B12: IL6R-BP447/IL6R-L (antibody, human IgG1, kappa, name in EU numbering)
heavy: B1 heavy with Y236L, G239D, S269A, H270E, A328K, K332R, P398A
light: not shown
notes: copies: 2 + 2

Kd [10]: 2000 nM
B15: IL6R-BP451/IL6R-L (antibody, human IgG1, kappa, name in EU numbering)
heavy: B1 heavy with Y236L, G239D, S269A, H270E, A328K, K332R, P398G
light: not shown
notes: copies: 2 + 2

Kd [2]: 6 µM
B16: IL6R-BP243/IL6R-L (antibody, human IgG1, kappa, name in EU numbering)
heavy: B1 heavy with G239D, H270D, A328K, K332R
light: not shown
notes: EU numbering; copies: 2 + 2

binding result (mouse FcγRI): no binding
binding result (mouse FcγRIV): no binding
B21: VH3/L(WT)-mIgG1 (antibody)
heavy: B20 heavy with D323A
light: not shown
notes: mouse IgG1 constant region; copies: 2 + 2

binding result (mouse FcγRI): no binding
binding result (mouse FcγRIV): no binding
B22: VH3/L(WT)-mIgG1-mF46 (antibody)
heavy: B20 heavy with S235D
light: not shown
notes: copies: 2 + 2
